Results as given in patent US20190038796A1.

Target: EGF-MMP (recombinant epidermal growth factor with N-terminal PLP reactive site AKT, polyhistidine tag and MMP cleavage site VPLSLYSG)
Assay: cell-based or functional assay

Chain of EGF-MMP (recombinant epidermal growth factor with N-terminal PLP reactive site AKT, polyhistidine tag and MMP cleavage site VPLSLYSG) (chain, as listed by the source limits assumed): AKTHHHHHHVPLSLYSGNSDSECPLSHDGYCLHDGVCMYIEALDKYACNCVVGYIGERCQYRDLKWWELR

- EGF released from the conjugated PCL fiber mat after 4 hours of incubation with MMP-9 (ELISA): 20 ng/mg
- EGF released from the conjugated PCL fiber mat over the first 10 minutes after the enzyme was added (ELISA) (ng EGF/mg PCL): 11
Substance: Recombinant, human pro-MMP-9 expressed in CHO cells, activated with amino-phenyl mercuric acetate (APMA) (from UniProt P14780 20-707) (enzyme)
